T1: CgPho4 DBD (Candida glabrata, UniProt Q6FVW0 452-533)
T1 sequence: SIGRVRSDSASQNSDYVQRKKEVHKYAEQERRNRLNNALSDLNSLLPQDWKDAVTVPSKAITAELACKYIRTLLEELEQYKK

T2: ScPho4 DBD (Saccharomyces cerevisiae, UniProt P07270 236-312)
T2 sequence: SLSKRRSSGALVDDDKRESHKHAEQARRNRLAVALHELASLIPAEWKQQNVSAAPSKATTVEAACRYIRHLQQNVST

B1: 17-bp consensus E-box, BLI probe (dsDNA)
DNA 1: CTAGTCCCACGTGTGAG
DNA 2: CTCACACGTGGGACTAG
B2: 17-bp consensus E-box, EMSA probe (dsDNA)
DNA 1: CTAGTCCCACGTGTGAG
DNA 2: CTCACACGTGGGACTAG

Tests used:
CgPho4 DBD [1] = molecular target: T1, CgPho4 DBD; assay: BLI; mean of 5 replicates; 30 C; BLI: 1x PBS pH 7.4, 0.01% BSA, 0.002% Tween-20, 0.005% sodium azide, 30 C; EMSA: 20 mM Tris-HCl pH 8, 150 mM KCl, 10% glycerol, 5 mM MgCl2, 1 mM EDTA, 1 mM DTT, 4 C; conditions: protein: recombinant; tags: C-terminal 6xHis; chain copies: 2; blunt
ScPho4 DBD [2] = molecular target: T2, ScPho4 DBD; assay: as above; conditions: protein: recombinant; tags: C-terminal 6xHis; chain copies: 2; blunt
CgPho4 DBD [3] = molecular target: T1, CgPho4 DBD; assay: EMSA; 5 mM MgCl2, 1 mM EDTA; 4 C; BLI: 1x PBS pH 7.4, 0.01% BSA, 0.002% Tween-20, 0.005% sodium azide, 30 C; EMSA: 20 mM Tris-HCl pH 8, 150 mM KCl, 10% glycerol, 5 mM MgCl2, 1 mM EDTA, 1 mM DTT, 4 C; conditions: protein: recombinant; tags: C-terminal 6xHis; chain copies: 2; label: IR700; blunt
ScPho4 DBD [4] = molecular target: T2, ScPho4 DBD; assay: as above; conditions: protein: recombinant; tags: C-terminal 6xHis; chain copies: 2; label: IR700; blunt

Row | Binder | Kd (CgPho4 DBD [1]) | Kd (ScPho4 DBD [2]) | Kd (CgPho4 DBD [3]) | Kd (ScPho4 DBD [4])
1 | B1 | 1.2 nM | 5.2 nM |  | 
2 | B2 |  |  | 1.9 nM | 5.5 nM

Reference: article PMC12177071, “Divergence in a eukaryotic transcription factor’s co-TF dependence involves multiple intrinsically disordered regions”
